Laboratory results from IntAct's records for PubMed 12446441.

B1: Ras-related protein Rab-27A (Homo sapiens), P51159-1 (parent)
chain: MSDGDYDYLIKFLALGDSGVGKTSVLYQYTDGKFNSKFITTVGIDFREKRVVYRASGPDGATGRGQRIHLQLWDTAGQERFRSLTTAFFRDAMGFLLLFDLTNEQSFLNVRNWISQLQMHAYCENPDIVLCGNKSDLEDQRVVKEEEAIALAEKYGIPYFETSAANGTNISQAIEMLLDLIMKRMERCVDKSWIPEGVVRSNGHASTDQLSEEKEKGACGC
partner: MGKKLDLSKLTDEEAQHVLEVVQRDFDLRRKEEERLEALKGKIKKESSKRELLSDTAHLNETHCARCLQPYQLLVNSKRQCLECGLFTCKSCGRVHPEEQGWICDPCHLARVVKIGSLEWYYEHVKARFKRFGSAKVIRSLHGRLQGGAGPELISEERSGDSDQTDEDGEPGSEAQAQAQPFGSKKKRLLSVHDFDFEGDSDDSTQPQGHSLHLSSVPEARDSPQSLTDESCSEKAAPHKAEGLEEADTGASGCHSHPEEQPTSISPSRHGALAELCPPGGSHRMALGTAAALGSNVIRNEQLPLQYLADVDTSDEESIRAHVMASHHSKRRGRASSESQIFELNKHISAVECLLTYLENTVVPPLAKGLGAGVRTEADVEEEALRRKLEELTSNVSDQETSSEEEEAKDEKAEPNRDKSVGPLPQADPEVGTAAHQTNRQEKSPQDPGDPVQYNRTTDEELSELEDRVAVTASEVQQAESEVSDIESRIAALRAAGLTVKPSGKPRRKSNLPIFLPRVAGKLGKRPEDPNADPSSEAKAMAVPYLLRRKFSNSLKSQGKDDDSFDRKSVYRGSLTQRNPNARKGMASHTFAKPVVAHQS

Variants of: B1
Conditions: with melph_human MLPH

Row | Variant | effect of a mutation on the interaction
1 | W73G | disrupting interaction strength
2 | W73L | disrupting interaction strength
3 | W73S | disrupting interaction strength

Variants of: B1
Conditions: with melph_human MLPH
Remark: another data set of the same source

Row | Variant | effect of a mutation on the interaction
4 | T23N | disrupting interaction strength
